Here are results for 14 molecules from patent US20220306762A1 (CRYSTAL BIOSCIENCE, published 2022).

What is called Kd is the free concentration of one partner at which half of the binding sites on the other are occupied at equilibrium, for simple one-to-one binding.

In assay [1] the target is T1, His-tagged human CD38 (ACRO Biosystems CD8-H5224) (human, UniProt P28907 43-300).
T1 construct: bought protein; used for ELISA coating and as SPR analyte; not shown: His tag
Description: SPR, IgG.

Assay [2] deals with T2, His-tagged cynomolgus monkey CD38 (ACRO Biosystems, CD8-05223 [sic]) (cynomolgus monkey, UniProt Q5VAN0 43-301).
T2 construct: bought protein; used for ELISA coating and as SPR analyte; not shown: His tag
In words: SPR, IgG. A general note: Surface plasmon resonance follows binding to a sensor surface in real time, without labels.

Assay [3] addresses T3, His-tagged mouse CD38 (ACRO Biosystems CD8-M5223) (mouse, UniProt P56528 45-304).
T3 construct: bought protein; used for ELISA coating and as SPR analyte; also called Murine; not shown: His tag
T3 sequence (looked up): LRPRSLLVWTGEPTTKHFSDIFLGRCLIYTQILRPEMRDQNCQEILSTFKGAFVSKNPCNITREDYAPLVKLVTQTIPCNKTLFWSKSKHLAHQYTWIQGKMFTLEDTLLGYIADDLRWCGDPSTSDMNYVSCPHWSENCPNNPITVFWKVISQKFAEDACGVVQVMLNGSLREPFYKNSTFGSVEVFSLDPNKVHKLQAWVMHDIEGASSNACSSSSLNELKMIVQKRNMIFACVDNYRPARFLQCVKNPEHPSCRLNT
Description: SPR (second run), His-tagged CD38.

In assay [4] the target is T1, His-tagged human CD38 (ACRO Biosystems …). In words: SPR (second run), His-tagged CD38.
For assay [5], the target named is T2, His-tagged cynomolgus monkey CD38 (ACRO …). In words: SPR (second run), His-tagged CD38.

B1: 40596p2.1.B8 IgG (antibody, V domains shown)
VH: EVQLLESGGGLGQPGGSLRLSCAASGFDFSSYAMSWVRQAPGKGLEWVAGGGWSGSFIYYADSVKGRFTISRDNSKNTLYLQMNSLRAEDTAVYYCTRNPGFGEMDVWGQGTTVTVSS
VL: EIVLTQSPGTLSLSPGERATLSCRASQTVGSNLAWYQQKPGQAPRLLIHGANNRATDIPDRFSGSGSGTEFTLTVSSLQSEDFAIYYCQQYNSWPPLTFGGGTKVEIK
notes: IgG
On to B1, for which the dissociation constant (Kd) in assay [1] is 18.5 nM; in assay [2], 159 nM.

B2: 40769p2.2.H8 IgG (antibody, V domains shown)
VH: EVQLLESGGGLVQSGGSLRLSCAASGFNFNSHDMNWVRQAPGKGLEWVSSISADRGRTYYADSVKGRFTIFRDDSKKILYLQMNSLRAEDTAVYYCTKYYNMDVWGQGTTVTVSS
VL: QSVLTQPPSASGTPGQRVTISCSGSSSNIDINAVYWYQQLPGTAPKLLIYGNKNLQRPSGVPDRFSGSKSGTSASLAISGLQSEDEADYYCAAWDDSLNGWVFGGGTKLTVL
notes: IgG
For B2, the dissociation constant Kd in assay [1] was found to be 65.7 nM; in assay [2], 148 nM.

B3: 40769p2.2.C11 IgG (antibody, V domains shown)
VH: EVQLLESGGGLVQPGGSLRLSCAASGFTFSDYEMNWVRQAPGKGLEWVSSISITGSWTYYADSVKGRFTISRDNSKNTLYLQMNNLRAEDTAVYYCANYKSYYGMDVWGHGTTVTVSS
VL: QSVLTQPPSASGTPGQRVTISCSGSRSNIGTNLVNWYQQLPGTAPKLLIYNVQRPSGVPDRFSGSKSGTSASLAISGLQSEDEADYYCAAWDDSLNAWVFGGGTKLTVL
notes: IgG
Take B3: the Kd in assay [1] was 0.67 nM; in assay [2], 2.18 nM.

B4: 40769p2.2.A6 IgG (antibody, V domains shown)
VH: EVQLLESGGGLVQPGGSLRLSCAASGFTFSDYEMNWVRQAPGKGLEWVSAISITGSWTYYADSVKGRFTISRDNSENTLYLQMNNLRAEDTAVYYCANYKSYYGMDVWGRGTTVTVSS
VL: QSVLTQPPSASGTPGQRVTISCSGSRSNIRNNLVNWYQQLPGTAPKLLIYNTQRPSGVPDRFSGSKSGTSASLAISGLQSEDEADYYCASWDASLNAWVFGGGTKLTVL
notes: IgG
For B4, the Kd in assay [1] was found to be 21.9 nM; in assay [2], 22.9 nM.

B5: 40769p2.1.E5 IgG (antibody, V domains shown)
VH: EVQLLESGGGLVQPGGSLRLSCTASAHIFKYNWMSWVRQAPGKGLEWVSSINSDGTITYYTDSVKGRFTISRDNSKNTLYLQMNSLRAEDTAVYYCAKDNWNDYAIDVWGQGTTVTVSS
VL: QSVLTQPPSASGTPGQRVTISCSGSRSDIRNNYVSWYQQLPGTAPKLLIYSNGQRPSGVPDRFSGSKSGTSASLAISGLQSEDEADYYCAIWDDSLNAWVFGGGTKLTVL
notes: IgG
As to B5, the figures for the Kd in assay [1] and in assay [2] were 1.18 nM and 467 nM, respectively.

B6: 40769p2.1.E8 IgG (antibody, V domains shown)
VH: EVQLLESGGGLVQPGGSLRLSCTGFGFTFTDARMSWVRQAPGKGLEWVADISSYGDNTYYADSVKGRFTISRDNSANTLYVQMNSLRAEDTAVYYCAKRMEREVMTIKLDYHAMDVWGQGTTVTVSS
VL: QSVLTQTPSVSGTPGQRVTISCSGVFNIRNYVSWYQQLPGTAPKLLIFKDDQRPSGVPDRFSGSRSGTSASLAISGLQSEDEADYYCAAWDIFLNVWVFGGGTKLTVL
notes: IgG
Regarding B6, the values for the dissociation constant (Kd) in assay [1] and in assay [2] were 0.14 nM and 0.35 nM, respectively.

B7: 40617p1.2.A1 (scFv, V domains shown)
VH: EVQLLESGGGLVQPGGSLRLSCAASGFTFSSYWMTWVRQAPGKGLEWVSAISSYGGQYTYYADSVKGRFTISRDNSKDTLYLHMDSLRAEDTAVYYCAKDWDDGMDVWGQGTTVTVSS
VL: EIVMTQSPAVLSVSPGERATLSCRASQSVNIKLAWYQQKPGQAPRLLIYGASTRAAGIPDRFSGSGSGTDFTLTISSLQSDDFAVYYCQQYYDLPPYSFGGGTKVEIK
B7: the figures for the Kd in assay [3], in assay [4] and in assay [5] were 141 nM, 75.3 nM and 102 nM, respectively.

B8: 40769p2.2.A9 IgG (antibody, V domains shown)
VH: EVQLLESGGGLVQPGGSLRLSCTASGITFSRFNMFWVRQAPGKGLEFVASIRDDGSWTYYADSVKGQFTISRDNSKNTLYLQMNSLRAEDTAVYYCAKDYNSKDFIYHYVMDVWGQGTTVTVSS
VL: QSVLTQPPSASGTPGQRVTISCSGRNSNIGNNVVNWYQQLPGTAPKLLIYRNQERPSGVPDRFSGSKSGTSASLAISGLQSEDEADYYCSTWDDSLNGWVFGGGTKLTVL
notes: IgG
In the case of B8, the Kd in assay [1] was found to be 11.3 nM; in assay [2], 259 nM.

B9: 40769p2.2.H4 IgG (antibody, V domains shown)
VH: EVQLLESGGGLVQPGGSLRLSCAASGFDFSSYWMNWVRQAPGKGLEWVSTISSGGSIIYYADSVKGQFTISRDNSKNTLYLQMNSLRAEDTAVYYCAKDNWNDYYGMDVWGQGTTVTVSS
VL: QSVPTQPPSASGTPGQRVTISCSGSSSNIRDNYVYWYQQVPGTAPKLLIYKDDQRPSGVPDRFSGSKSGTSASLAISGLQSEDEADYYCATWDGSLNARVFGGGTKLTVL
notes: IgG
Regarding B9, the Kd in assay [1] was 57 nM; in assay [2], 167 nM.

B10: 40769p2.1.C1 IgG (antibody, V domains shown)
VH: EVQLLESGGGLVQPGGSLRLSCAASGFSFSDYWMNWVRQAPGKGLEWVSTISSGGNMIYYADSVKGRFTISRDNSKNTLYLRMNSLRAEDTAVYYCAKDNWNDYYGMDVWGQGTTVTVSS
VL: QSVLTQPPSASGTPGQRVTISCSGSSSNIRDNYVYWYQQVPGTAPKLLIYKDDQRPSGVPDRFSGSKSGSSASLAISGLQSEDEADYYCATWDGSLNARVFGGGTKLTVL
notes: IgG
In the case of B10, the Kd turned out to be 60.7 nM in assay [1] and 29.3 nM in assay [2].

B11: 40596p1.F6 (scFv, V domains shown)
VH: EVQLLESGGGLVQPGGSLRLSCAASGFDFSKNAMSWVRQAPGKGLEYVAGSGWSGSFIFYADSVKGRFTVSRDNSENTLYLQMSSLRAEDTAVYYCAKNPGFGEMDVWGQGTTVTVSS
VL: EIVLTQSPGSLFLSPGERATLTCRASQTIGSNLAWYQQKFGQAPRLLIYGASTRAADIPDRFSGSGSGTEFTLTISSLQSEDFAVYYCQQYNSWPPLTFGGGTKVEIK
Regarding B11, the Kd in assay [3] came out at 27.2 nM; in assay [4], 80.4 nM; in assay [5] it was 281 nM.

B12: 40596p1.E4 (scFv, V domains shown)
VH: EVQLLESGGGLVQPGGSLRLSCAASGFDFSGSAMSWVRQAPGKGLEYVAGLGWSGSFIYYADSVKGRSTISRDNSKNTLYLQLNSLRAEDTAVYYCARNPGFGEMDVWGQGTTVTVSS
VL: EIVLTQSPGSLSLSPGERATLSCRASQTVGSNLAWYQQKPGQAPRLLIYGASTRATDIPDRFSGSGSGTEFTLTISSLQSEDFAVYYCQQYNSWPPLTFGGGTKVEIK
Regarding B12, the figures for the Kd in assay [3], in assay [4] and in assay [5] were 930 nM, 26.4 nM and 147 nM, respectively.

B13: 40596p1.A5 (scFv, V domains shown)
VH: EVQLLESGGGLVQPGGSLRLSCAASGFDFSNNAMSWVRQAPGKGLEYVAGSGWSGSFIFYADSVKGRFTVSRDNSENTLYLQMNSLRAEDTAVYYCAKNPGFGEMDVWGQGTTVTVSS
VL: EIVLTQSPGSLSLSPGERATLRCRASQSIGSNLAWYQQKPGQAPSLLIYGASTRAADIPDRFSGSGSGTEFTLTITSLQSEDFAVYYCQQYNSWPPLTFGGGTKVEIK
Regarding B13, the figures for the Kd in assay [3], in assay [4] and in assay [5] were 23.7 nM, 56.9 nM and 203 nM, respectively.

B14: 40596p1.D2 (scFv, V domains shown)
VH: EVQLLESGGGLVQPGGSLRLSCAASGFDFSKNAMSWVRQAPGKGLEYVAGSGWSGSFIFYADSVKGRSTVSRDNSENTLYLQMSSLRAEDTAVYYCAKNPGFGEMDVWGQGTTVTVSS
VL: ELVLTQSPGSLFLSPGERATLTCRASQTIGSNLAWYQQKFGQAPRLLIYGASTRAADIPDRFSGSGSGTEFTLTISSLQSEDFAVYYCQQYNSWPPLTFGGGTKVEIK
B14: the Kd in assay [3] came out at 45.2 nM; in assay [4], 54.7 nM; in assay [5], 172 nM.
